{"source": "patent US12479895B2", "about": "“C-terminal CDNF and MANF fragments, pharmaceutical compositions comprising same and uses thereof” (MyNeuroCure Oy, priority 2018, dated 2025)", "molecules": {"B1": {"name": "KYEKTLDLASVDLRKMRVAELKQILHSWGEECRACAEKTDYVNLIQELAPKYAATHPKTEL (peptide, listed as Homo sapiens)", "chain": "KYEKTLDLASVDLRKMRVAELKQILHSWGEECRACAEKTDYVNLIQELAPKYAATHPKTEL"}}, "key": {"[1]": {"system": "dopamine neurons", "experiment": "Survival of TH-positive dopamine neurons in dissociated midbrain floor cultures", "assay_type": "cell-based, mouse", "details": "for survived neurons as % compared to neurons grown in the presence of GDNF: Table 3A (FIG. 15); for survived neurons as % compared to neurons grown in the presence of GDNF / protection of dopaminergic neurons in culture (result in words): 5 days; for Fold change of survived neurons compared to neurons grown without growth factors: data of Table 3 divided by values of no factor; for protection of dopaminergic neurons in culture (result in words): added to the culture medium, TH-positive neurons counted", "procedure,_shortened": "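Dissociated E13.5 NMRI mouse midbrain floor neurons grown five days in DMEM/F12 with N2, with polypeptides at a range of concentrations, GDNF (100 ng/ml), or nothing. TH-immunopositive neurons were counted by imaging. Values are a percentage of GDNF-maintained TH-positive neurons, as mean ± SEM from at least three independent cultures.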"}, "[2]": {"system": "rat model of cerebral ischemia", "experiment": "Distal occlusion of the middle cerebral artery as a model of cerebral stroke", "assay_type": "in vivo", "experimental": "Male Sprague Dawley rats (weight 230-270 g, Envigo, Netherlands) were used for the experiments which were conducted according to the 3R principles of EU directive 2010/63/EU on the care and use of experimental animals, local laws and regulations, and were approved by the national Animal Experiment Board of Finland All experiments were performed in a blinded manner and the rats were assigned to different treatment groups randomly. Rats were anesthesized with chloral hydrate (0.4 g/kg, i.p). A cortical stroke was induced by occluding the distal middle cerebral artery (dMCA) together with a bilateral common carotid artery (CCA) occlusion for 60 min as described previously (Chen, et al., 1986). Briefly, the bilateral CCAs were identified and isolated through a ventral midline cervical incision. Rats were placed in stereotaxic apparatus and a craniotomy was made in the right hemisphere. The right (MCA) was ligated with a 10-0 suture and bilateral common carotids (CCA) were ligated with non-traumatic arterial clamps for 60 minutes. […]\nTo test the neuroprotective effect of subcutaneous C-CDNF, 50 μg of C-CDNF was given 30-50 min before dMCA occlusion and immediately after reperfusion in volume of 100 μl s.c. Phosphate-buffered saline (PBS) was used as vehicle control. […] The area of infarction in each slice was measured with a digital scanner and ImageJ software. […]"}}}
{"molecule": "B1", "values": [{"measurement": "survived neurons as % compared to neurons grown in the presence of GDNF", "setting": "[1]; AVG, 1 ng/ml", "value": 63.97, "unit": "% GDNF"}, {"measurement": "survived neurons as % compared to neurons grown in the presence of GDNF", "setting": "[1]; AVG, 10 ng/ml", "value": 80.69, "unit": "% GDNF"}, {"measurement": "survived neurons as % compared to neurons grown in the presence of GDNF", "setting": "[1]; AVG, 100 ng/ml", "value": 77.02, "unit": "% GDNF"}, {"measurement": "survived neurons as % compared to neurons grown in the presence of GDNF", "setting": "[1]; AVG, 1000 ng/ml", "value": 70.02, "unit": "% GDNF"}, {"measurement": "survived neurons as % compared to neurons grown in the presence of GDNF", "setting": "[1]; exp1, 1 ng/ml", "value": 62.96, "unit": "% GDNF"}, {"measurement": "survived neurons as % compared to neurons grown in the presence of GDNF", "setting": "[1]; exp1, 10 ng/ml", "value": 81.68, "unit": "% GDNF"}, {"measurement": "survived neurons as % compared to neurons grown in the presence of GDNF", "setting": "[1]; exp1, 100 ng/ml", "value": 91.48, "unit": "% GDNF"}, {"measurement": "survived neurons as % compared to neurons grown in the presence of GDNF", "setting": "[1]; exp1, 1000 ng/ml", "value": 75.02, "unit": "% GDNF"}, {"measurement": "survived neurons as % compared to neurons grown in the presence of GDNF", "setting": "[1]; exp2, 1 ng/ml", "value": 67.36, "unit": "% GDNF"}, {"measurement": "survived neurons as % compared to neurons grown in the presence of GDNF", "setting": "[1]; exp2, 10 ng/ml", "value": 80.97, "unit": "% GDNF"}, {"measurement": "survived neurons as % compared to neurons grown in the presence of GDNF", "setting": "[1]; exp2, 100 ng/ml", "value": 65.28, "unit": "% GDNF"}, {"measurement": "survived neurons as % compared to neurons grown in the presence of GDNF", "setting": "[1]; exp2, 1000 ng/ml", "value": 61.07, "unit": "% GDNF"}, {"measurement": "survived neurons as % compared to neurons grown in the presence of GDNF", "setting": "[1]; exp3, 1 ng/ml", "value": 61.59, "unit": "% GDNF"}, {"measurement": "survived neurons as % compared to neurons grown in the presence of GDNF", "setting": "[1]; exp3, 10 ng/ml", "value": 79.42, "unit": "% GDNF"}, {"measurement": "survived neurons as % compared to neurons grown in the presence of GDNF", "setting": "[1]; exp3, 100 ng/ml", "value": 74.30, "unit": "% GDNF"}, {"measurement": "survived neurons as % compared to neurons grown in the presence of GDNF", "setting": "[1]; exp3, 1000 ng/ml", "value": 73.98, "unit": "% GDNF"}, {"measurement": "Fold change of survived neurons compared to neurons grown without growth factors", "setting": "[1]; Table 4, AVG, 1 ng/ml", "value": 1.04, "unit": "fold"}, {"measurement": "Fold change of survived neurons compared to neurons grown without growth factors", "setting": "[1]; Table 4, AVG, 10 ng/ml", "value": 1.31, "unit": "fold"}, {"measurement": "Fold change of survived neurons compared to neurons grown without growth factors", "setting": "[1]; Table 4, AVG, 100 ng/ml", "value": 1.26, "unit": "fold"}, {"measurement": "Fold change of survived neurons compared to neurons grown without growth factors", "setting": "[1]; Table 4, AVG, 1000 ng/ml", "value": 1.14, "unit": "fold"}, {"measurement": "Fold change of survived neurons compared to neurons grown without growth factors", "setting": "[1]; Table 4, exp1, 1 ng/ml", "value": 1.10, "unit": "fold"}, {"measurement": "Fold change of survived neurons compared to neurons grown without growth factors", "setting": "[1]; Table 4, exp1, 10 ng/ml", "value": 1.43, "unit": "fold"}, {"measurement": "Fold change of survived neurons compared to neurons grown without growth factors", "setting": "[1]; Table 4, exp1, 100 ng/ml", "value": 1.60, "unit": "fold"}, {"measurement": "Fold change of survived neurons compared to neurons grown without growth factors", "setting": "[1]; Table 4, exp1, 1000 ng/ml", "value": 1.31, "unit": "fold"}, {"measurement": "Fold change of survived neurons compared to neurons grown without growth factors", "setting": "[1]; Table 4, exp2, 1 ng/ml", "value": 1.07, "unit": "fold"}, {"measurement": "Fold change of survived neurons compared to neurons grown without growth factors", "setting": "[1]; Table 4, exp2, 10 ng/ml", "value": 1.28, "unit": "fold"}, {"measurement": "Fold change of survived neurons compared to neurons grown without growth factors", "setting": "[1]; Table 4, exp2, 100 ng/ml", "value": 1.04, "unit": "fold"}, {"measurement": "Fold change of survived neurons compared to neurons grown without growth factors", "setting": "[1]; Table 4, exp2, 1000 ng/ml", "value": 0.97, "unit": "fold"}, {"measurement": "Fold change of survived neurons compared to neurons grown without growth factors", "setting": "[1]; Table 4, exp3, 1 ng/ml", "value": 0.95, "unit": "fold"}, {"measurement": "Fold change of survived neurons compared to neurons grown without growth factors", "setting": "[1]; Table 4, exp3, 10 ng/ml", "value": 1.23, "unit": "fold"}, {"measurement": "Fold change of survived neurons compared to neurons grown without growth factors", "setting": "[1]; Table 4, exp3, 100 ng/ml", "value": 1.15, "unit": "fold"}, {"measurement": "Fold change of survived neurons compared to neurons grown without growth factors", "setting": "[1]; Table 4, exp3, 1000 ng/ml", "value": 1.14, "unit": "fold"}, {"measurement": "protection of dopaminergic neurons in culture (result in words)", "setting": "[1]", "value": "protects"}, {"measurement": "protection of dopaminergic neurons in culture (result in words)", "setting": "[1]; listed as C-terminal CDNF fragment", "value": "potently protected"}, {"measurement": "infarction volume (rostral part of the cerebral cortex)", "setting": "[2]; 50 μg s.c. 30-50 minutes before dMCA occlusion and right after reperfusion, p<0.05 vs PBS", "value": "decreases"}, {"measurement": "smaller lesions than the vehicle treated rats", "setting": "[2]; 50 μg s.c. before dMCA occlusion and right after reperfusion, n=8-9", "value": "about 50%"}]}
